What was measured:
Test in all cases: native gel or EMSA
[1] = molecular target: 12 x 200 x 601 (12N200) nucleosome array, unmodified histones
[2] = molecular target: 12N200 nucleosome array assembled with linker histone H1.4 (UniProt P10412)
[3] = molecular target: 147 bp nucleosome core particle (N147), unmodified histones
[4] = molecular target: H2A.Z/H3K9cme3 12N200 nucleosome array (UniProt P0C0S5)
[5] = molecular target: H2A.Z/H3K9cme3 12N200 nucleosome array saturated with H1.4 (UniProt P0C0S5)
[6] = molecular target: N203 mononucleosome with a stoichiometric amount of linker histone H1.4 (UniProt P10412)
[7] = molecular target: symmetric 203 bp mononucleosome (N203), unmodified histones

Substance: HP1α (Heterochromatin Protein 1 alpha), wild type (from UniProt P45973 1-191) (natural protein)
- K1/2 [1]: 0.71 µM
- K1/2 [2]: 2.15 µM
- K1/2 [3]: 2.29 µM
- K1/2 [4]: 0.23 µM
- K1/2 [5]: 1.15 µM
- K1/2 [6]: 1.26 µM
- K1/2 [7]: 0.58 µM

From publication PMC6182156
